{
  "source": "paper PMC11969024",
  "about": "(2025)",
  "parents": {"B1": {"name": "peptide HD2 (from tick evasin EVA4) / CCL1 (biotinylated, synthetic) (parent complex)", "chain 1": "EEDDYTAYAPLTCYFT", "chain 2": "KSMQVPFSRCCFSFAEQEIPLRAILCYRNTSSICSNEGLIFKLKRGKEACALDTVGWVQRHRKMLRHCPSKRK"}},
  "data": [
    {"variants_of": "B1", "values": [
      {"variant": "chain 1 Y8I", "enrichment": "-5.15 log2 (difference from the parental peptide)"},
      {"variant": "chain 1 Y8A", "enrichment": "-8 log2 (difference from the parental peptide)"},
      {"variant": "chain 1 Y14V", "enrichment": "-4.97 log2 (difference from the parental peptide)"},
      {"variant": "chain 1 Y14L", "enrichment": "-6.02 log2 (difference from the parental peptide)"},
      {"variant": "chain 1 Y14S", "enrichment": "-6.58 log2 (difference from the parental peptide)"},
      {"variant": "chain 1 Y14C", "enrichment": "-6.55 log2 (difference from the parental peptide)"},
      {"variant": "chain 1 D4S", "enrichment": "-6.83 log2 (difference from the parental peptide)"},
      {"variant": "chain 1 D4M", "enrichment": "-5.27 log2 (difference from the parental peptide)"},
      {"variant": "chain 1 D4W", "enrichment": "-2.57 log2 (difference from the parental peptide)"},
      {"variant": "chain 1 T6S", "enrichment": "4.57 log2 (difference from the parental peptide)"},
      {"variant": "chain 1 T6A", "enrichment": "2.46 log2 (difference from the parental peptide)"},
      {"variant": "chain 1 T6M", "enrichment": "-2.14 log2 (difference from the parental peptide)"},
      {"variant": "chain 1 T6L", "enrichment": "-3.32 log2 (difference from the parental peptide)"},
      {"variant": "chain 1 E2D", "enrichment": "1.47 log2 (difference from the parental peptide)"},
      {"variant": "chain 1 E2Q", "enrichment": "-3.13 log2 (difference from the parental peptide)"},
      {"variant": "chain 1 E2M", "enrichment": "-2.13 log2 (difference from the parental peptide)"},
      {"variant": "chain 1 E2N", "enrichment": "-2.76 log2 (difference from the parental peptide)"},
      {"variant": "chain 1 E2T", "enrichment": "-2.76 log2 (difference from the parental peptide)"},
      {"variant": "chain 1 T12F", "enrichment": "-1.45 log2 (difference from the parental peptide)"},
      {"variant": "chain 1 T12H", "enrichment": "-0.868 log2 (difference from the parental peptide)"},
      {"variant": "chain 1 T12D", "enrichment": "-0.0823 log2 (difference from the parental peptide)"},
      {"variant": "chain 1 T12I", "enrichment": "-1.49 log2 (difference from the parental peptide)"},
      {"variant": "chain 1 T12L", "enrichment": "-0.228 log2 (difference from the parental peptide)"},
      {"variant": "chain 1 T12E", "enrichment": "-2.48 log2 (difference from the parental peptide)"},
      {"variant": "chain 1 T12K", "enrichment": "-1.81 log2 (difference from the parental peptide)"},
      {"variant": "chain 1 T12M", "enrichment": "-0.791 log2 (difference from the parental peptide)"},
      {"variant": "chain 1 F15R", "enrichment": "-0.358 log2 (difference from the parental peptide)"},
      {"variant": "chain 1 F15Y", "enrichment": "1.84 log2 (difference from the parental peptide)"},
      {"variant": "chain 1 F15D", "enrichment": "-3.07 log2 (difference from the parental peptide)"},
      {"variant": "chain 1 F15G", "enrichment": "-3.15 log2 (difference from the parental peptide)"},
      {"variant": "chain 1 F15K", "enrichment": "-1.11 log2 (difference from the parental peptide)"},
      {"variant": "chain 1 L11K", "enrichment": "-0.661 log2 (difference from the parental peptide)"},
      {"variant": "chain 1 L11M", "enrichment": "2.12 log2 (difference from the parental peptide)"},
      {"variant": "chain 1 L11H", "enrichment": "-1.29 log2 (difference from the parental peptide)"},
      {"variant": "chain 1 P10L", "enrichment": "-8.15 log2 (difference from the parental peptide)"},
      {"variant": "chain 1 P10G", "enrichment": "-5.87 log2 (difference from the parental peptide)"},
      {"variant": "chain 1 P10D", "enrichment": "-1.68 log2 (difference from the parental peptide)"},
      {"variant": "chain 1 P10W", "enrichment": "-5.49 log2 (difference from the parental peptide)"},
      {"variant": "chain 1 P10E", "enrichment": "-5.54 log2 (difference from the parental peptide)"},
      {"variant": "chain 1 P10V", "enrichment": "-9.61 log2 (difference from the parental peptide)"},
      {"variant": "chain 1 T16R", "enrichment": "-4.51 log2 (difference from the parental peptide)"},
      {"variant": "chain 1 T16D", "enrichment": "2.85 log2 (difference from the parental peptide)"},
      {"variant": "chain 1 T16Y", "enrichment": "-0.704 log2 (difference from the parental peptide)"},
      {"variant": "chain 1 T16I", "enrichment": "-0.756 log2 (difference from the parental peptide)"},
      {"variant": "chain 1 T16K", "enrichment": "-1.01 log2 (difference from the parental peptide)"},
      {"variant": "chain 1 C13T", "enrichment": "-4.75 log2 (difference from the parental peptide)"},
      {"variant": "chain 1 C13M", "enrichment": "-7.16 log2 (difference from the parental peptide)"},
      {"variant": "chain 1 C13Q", "enrichment": "-7.02 log2 (difference from the parental peptide)"},
      {"variant": "chain 1 C13R", "enrichment": "-9.78 log2 (difference from the parental peptide)"},
      {"variant": "chain 1 A9I", "enrichment": "-6.64 log2 (difference from the parental peptide)"},
      {"variant": "chain 1 A9N", "enrichment": "-5.08 log2 (difference from the parental peptide)"},
      {"variant": "chain 1 A9Q", "enrichment": "-0.52 log2 (difference from the parental peptide)"},
      {"variant": "chain 1 A9P", "enrichment": "-5.04 log2 (difference from the parental peptide)"},
      {"variant": "chain 1 A9L", "enrichment": "-6.22 log2 (difference from the parental peptide)"},
      {"variant": "chain 1 A9R", "enrichment": "-5.43 log2 (difference from the parental peptide)"},
      {"variant": "chain 1 A9M", "enrichment": "-5.21 log2 (difference from the parental peptide)"},
      {"variant": "chain 1 A9G", "enrichment": "-5.92 log2 (difference from the parental peptide)"},
      {"variant": "chain 1 D3Y", "enrichment": "-2.01 log2 (difference from the parental peptide)"},
      {"variant": "chain 1 D3P", "enrichment": "-2.66 log2 (difference from the parental peptide)"},
      {"variant": "chain 1 D3I", "enrichment": "-4.23 log2 (difference from the parental peptide)"},
      {"variant": "chain 1 D3Q", "enrichment": "-3.22 log2 (difference from the parental peptide)"},
      {"variant": "chain 1 D3L", "enrichment": "-3.89 log2 (difference from the parental peptide)"},
      {"variant": "chain 1 D3M", "enrichment": "-2.32 log2 (difference from the parental peptide)"},
      {"variant": "chain 1 D3F", "enrichment": "-4 log2 (difference from the parental peptide)"},
      {"variant": "chain 1 E1A", "enrichment": "-1.47 log2 (difference from the parental peptide)"},
      {"variant": "chain 1 E1N", "enrichment": "-1.4 log2 (difference from the parental peptide)"},
      {"variant": "chain 1 E1V", "enrichment": "-1.48 log2 (difference from the parental peptide)"},
      {"variant": "chain 1 E1S", "enrichment": "-1.56 log2 (difference from the parental peptide)"},
      {"variant": "chain 1 E1M", "enrichment": "-0.363 log2 (difference from the parental peptide)"},
      {"variant": "chain 1 A7G", "enrichment": "-2.66 log2 (difference from the parental peptide)"},
      {"variant": "chain 1 A7T", "enrichment": "-3.41 log2 (difference from the parental peptide)"},
      {"variant": "chain 1 A7D", "enrichment": "0.378 log2 (difference from the parental peptide)"},
      {"variant": "chain 1 A7Y", "enrichment": "-2.42 log2 (difference from the parental peptide)"},
      {"variant": "chain 1 A7S", "enrichment": "-0.477 log2 (difference from the parental peptide)"},
      {"variant": "chain 1 A7Q", "enrichment": "2.46 log2 (difference from the parental peptide)"}
    ]}
  ]
}
